Data as given in the supplement of paper PMC11246515.
± gives the standard deviation of the averaged measurements.

Experiment: total protein half-life in vivo (active degradation + dilution); higher = more stable protein
[1] = E. coli NCM3722 delta-clpP delta-lon delta-hslV, growth: N-lim chemostat, doubling time 6 h
[2] = E. coli NCM3722 delta-clpP, growth: N-lim chemostat, doubling time 6 h
[3] = E. coli NCM3722 delta-hslV, growth: N-lim chemostat, doubling time 6 h
[4] = E. coli NCM3722 delta-lon, growth: N-lim chemostat, doubling time 6 h
[5] = E. coli NCM3722 delta-smpB, growth: N-lim chemostat, doubling time 6 h
[6] = wild type E. coli NCM3722, growth: C-lim chemostat, doubling time 3 h
[7] = wild type E. coli NCM3722, growth: C-lim chemostat, doubling time 6 h
[8] = wild type E. coli NCM3722, growth: C-lim chemostat, doubling time 12 h
[9] = wild type E. coli NCM3722, growth: N-lim chemostat, doubling time 6 h
[10] = wild type E. coli NCM3722, growth: N-lim chemostat, doubling time 12 h
[11] = wild type E. coli NCM3722, growth: P-lim chemostat, doubling time 6 h
[12] = wild type E. coli NCM3722, growth: P-lim chemostat, doubling time 12 h

| Sequence | total protein half-life in vivo [1] | total protein half-life in vivo [2] | total protein half-life in vivo [3] | total protein half-life in vivo [4] | total protein half-life in vivo [5] | total protein half-life in vivo [6] | total protein half-life in vivo [7] | total protein half-life in vivo [8] | total protein half-life in vivo [9] | total protein half-life in vivo [10] | total protein half-life in vivo [11] | total protein half-life in vivo [12] |
| --- | --- | --- | --- | --- | --- | --- | --- | --- | --- | --- | --- | --- |
| MNFLAHLHLAHLAESSLSGNLLADFVRGNPEESFPPDVVAGIHMHRRIDVLTDNLPEVREAREWFRSETRRVAPITLDVMWDHFLSRHWSQLSPDFPLQEFVCYAREQVMTILPDSPPRFINLNNYLWSEQWLVRYRDMDFIQNVLNGMASRRPRLDALRDSWYDLDAHYDALETRFWQFYPRMMAQASRKAL | 5.09 ± 0.57 h | 2 ± 0.55 h | 2.32 h | 3.5 ± 0.25 h | 3.83 h | 2.18 h | 4.23 h | 6.12 h | 3.3 h | 4.2 h | 3.04 ± 0.068 h | 3.73 ± 1.6 h |
| MKMLRDPLFWLIALFVALIFWLPYSQPLFAALFPQLPRPVYQQESFAALALAHFWLVGISSLFAVIIGTGAGIAVTRPWGAEFRPLVETIAAVGQTFPPVAVLAIAVPVIGFGLQPAIIALILYGVLPVLQATLAGLGAIDASVTEVAKGMGMSRGQRVRKVELPLAAPVILAGVRTSVIINIGTATIASTVGASTLGTPIIIGLSGFNTAYVIQGALLVALAAIIADRLFERLVQALSQHAK |  |  |  |  |  |  |  |  |  | 5.89 h |  |  |
| MLDANKLQQAVDQAYTQFHSLNGGQNADYIPFLANVPGQLAAVAIVTCDGNVYSAGDSDYRFALESISKVCTLALALEDVGPQAVQDKIGADPTGLPFNSVIALELHGGKPLSPLVNAGAIATTSLINAENVEQRWQRILHIQQQLAGEQVALSDEVNQSEQTTNFHNRAIAWLLYSAGYLYCDAMEACDVYTRQCSTLLNTIELATLGATLAAGGVNPLTHKRVLQADNVPYILAEMMMEGLYGRSGDWAYRVGLPGKSGVGGGILAVVPGVMGIAAFSPPLDEDGNSVRGQKMVASVAKQLGYNVFKG | 5.46 ± 0.86 h | 5.64 ± 1.6 h | 4.65 ± 0.16 h | 4.81 ± 0.26 h | 4.57 ± 0.085 h |  | > 8 h | 10.1 h | 4.75 ± 0.39 h | 7.14 ± 2.3 h | 6.4 ± 0.21 h | 12.4 ± 0.65 h |
| MTNNPPSAQIKPGEYGFPLKLKARYDNFIGGEWVAPADGEYYQNLTPVTGQLLCEVASSGKRDIDLALDAAHKVKDKWAHTSVQDRAAILFKIADRMEQNLELLATAETWDNGKPIRETSAADVPLAIDHFRYFASCIRAQEGGISEVDSETVAYHFHEPLGVVGQIIPWNFPLLMASWKMAPALAAGNCVVLKPARLTPLSVLLLMEIVGDLLPPGVVNVVNGAGGVIGEYLATSKRIAKVAFTGSTEVGQQIMQYATQNIIPVTLELGGKSPNIFFADVMDEEDAFFDKALEGFALFAFNQGEVCTCPSRALVQESIYERFMERAIRRVESIRSGNPLDSVTQMGAQVSHGQLETILNYIDIGKKEGADVLTGGRRKLLEGELKDGYYLEPTILFGQNNMRVFQEEIFGPVLAVTTFKTMEEALELANDTQYGLGAGVWSRNGNLAYKMGRGIQAGRVWTNCYHAYPAHAAFGGYKQSGIGRETHKMMLEHYQQTKCLLVSYSDKPLGLF |  | 4.04 ± 0.7 h | 2.42 ± 0.5 h | 2.83 ± 0.035 h | 2.42 ± 0.14 h | 2.73 ± 0.41 h | 5.1 ± 0.31 h | 7.87 ± 0.019 h | 2.77 ± 0.77 h | 4.07 ± 0.55 h | 3.08 ± 1.1 h | 6.36 ± 0.73 h |
| MKKLTIGLIGNPNSGKTTLFNQLTGSRQRVGNWAGVTVERKEGQFSTTDHQVTLVDLPGTYSLTTISSQTSLDEQIACHYILSGDADLLINVVDASNLERNLYLTLQLLELGIPCIVALNMLDIAEKQNIRIEIDALSARLGCPVIPLVSTRGRGIEALKLAIDRYKANENVELVHYAQPLLNEADSLAKVMPSDIPLKQRRWLGLQMLEGDIYSRAYAGEASQHLDAALARLRNEMDDPALHIADARYQCIAAICDVVSNTLTAEPSRFTTAVDKIVLNRFLGLPIFLFVMYLMFLLAINIGGALQPLFDVGSVALFVHGIQWIGYTLHFPDWLTIFLAQGLGGGINTVLPLVPQIGMMYLFLSFLEDSGYMARAAFVMDRLMQALGLPGKSFVPLIVGFGCNVPSVMGARTLDAPRERLMTIMMAPFMSCGARLAIFAVFAAAFFGQNGALAVFSLYMLGIVMAVLTGLMLKYTIMRGEATPFVMELPVYHVPHVKSLIIQTWQRLKGFVLRAGKVIIIVSIFLSAFNSFSLSGKIVDNINDSALASVSRVITPVFKPIGVHEDNWQATVGLFTGAMAKEVVVGTLNTLYTAENIQDEEFNPAEFNLGEELFSAIDETWQSLKDTFSLSVLMNPIEASKGDGEMGTGAMGVMDQKFGSAAAAYSYLIFVLLYVPCISVMGAIARESSRGWMGFSILWGLNIAYSLATLFYQVASYSQHPTYSLVCILAVILFNIVVIGLLRRARSRVDIELLATRKSVSSCCAASTTGDCH |  |  | 0.616 h |  | 0.941 ± 0.47 h | 0.812 ± 0.12 h | 0.749 h | 1.58 ± 0.19 h | 0.841 h |  |  | 4.22 h |
| MKPLLDVLMILDALEKEGSFAAASAKLYKTPSALSYTVHKLESDLNIQLLDRSGHRAKFTRTGKMLLEKGREVLHTVRELEKQAIKLHEGWENELVIGVDDTFPFSLLAPLIEAFYQHHSVTRLKFINGVLGGSWDALTQGRADIIVGAMHEPPSSSEFGFSRLGDLEQVFAVAPHHPLALEEEPLNRRIIKRYRAIVVGDTAQAGASTASQLLDEQEAITVFDFKTKLELQISGLGCGYLPRYLAQRFLDSGALIEKKVVAQTLFEPVWIGWNEQTAGLASGWWRDEILANSAIAGVYAKSDDGKSAI | 5.91 ± 0.24 h |  |  |  |  |  |  |  |  |  |  |  |
| MPSAHSVKLRPLEREDLRYVHQLDNNASVMRYWFEEPYEAFVELSDLYDKHIHDQSERRFVVECDGEKAGLVELVEINHVHRRAEFQIIISPEYQGKGLATRAAKLAMDYGFTVLNLYKLYLIVDKENEKAIHIYRKLGFSVEGELMHEFFINGQYRNAIRMCIFQHQYLAEHKTPGQTLLKPTAQ [P0A951] | 5.494 ± 0.021 h | 6.01 ± 1.7 h | 5.04 ± 1.1 h |  | 5.16 ± 0.071 h | 2.7 ± 0.18 h | 5.17 ± 0.15 h | 10.5 ± 0.81 h | 4.92 ± 0.18 h | 9.78 ± 1.9 h | 5.06 ± 0.2 h | 11.6 ± 0.61 h |
